Experimental data published in patent US20120316071A1 (published 2012).
Changes are numbered by the printed parent chain.

T1: rHuman Erythropoietin R/Fc Chimera, CF (R&D Systems Cat#963-ER) (human, UniProt P19235 25-250)
T1 construct: Bought reagent; also called EPO R/Fc; Epo R
T1 sequence (looked up): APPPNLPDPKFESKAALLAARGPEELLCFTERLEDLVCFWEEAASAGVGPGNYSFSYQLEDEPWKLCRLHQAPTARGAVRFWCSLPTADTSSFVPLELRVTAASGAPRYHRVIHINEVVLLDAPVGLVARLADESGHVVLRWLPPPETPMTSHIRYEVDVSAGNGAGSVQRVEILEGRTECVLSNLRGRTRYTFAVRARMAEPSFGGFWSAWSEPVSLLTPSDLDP

T2: rHuman Erythropoietin R/Fc Chimera, CF (R&D Systems Cat#963-ER) (human, UniProt P19235 25-250)
T2 construct: Bought Fc chimera; also called EPO R/Fc; EPO R; Fc part of the bought chimera not given
T2 sequence (looked up): T1 sequence (looked up)

B1: Fab VH1-46_IGHD6-6*01_IGHJ1*01 & L6_IGKJ1*01 (Fab, V domains shown)
VH: QVQLVQSGAEVKKPGASVKVSCKASGYTFTSYYMHWVRQAPGQGLEWMGIINPSGGSTSYAQKFQGRVTMTRDTSTSTVYMELSSLRSEDTAVYYCAREEYSSSSAEYFQHWGQGTLVTVSS
VL: not shown
notes: Only variable domains are tied to the molecule; Tested as a Fab made in E. coli: heavy chain from Plasmid A (CH1 constant region, His6 and Flag tags), kappa light chain from Plasmid C (kappa CL); also called parent Hit Fab against DLL4; VH1-46_IGHD6-6*01_IGHJ1*01 & L6_IGKJ1*01 (parental)
B2: Fab VH1-46_IGHD6-13*01_IGHJ4*01 & O1_IGKJ1*01 (Fab, V domains shown)
VH: B1 VH with E100G, S105W, A106Y, E107D, Q110D, H111Y
VL: DIVMTQTPLSLPVTPGEPASISCRSSQSLLDSDDGNTYLDWYLQKPGQSPQLLIYTLSYRASGVPDRFSGSGSGTDFTLKISRVEAEDVGVYYCMQRIEFPSWTFGQGTKVEIKR
notes: Germline library Fab expressed in E. coli; VH was cloned into Plasmid A (CH1 constant region, His6 and Flag tags); The kappa VL was cloned into Plasmid C (kappa CL)

What was measured:
[1] = target: T3, rHuman IGF-1 sR, (IGF-1 sR), CF (R&D Systems Cat#391-GR) (human, UniProt P08069 31-932); assay: MSD multispot ECL, antigen spotted, Fab 595.8 nM; blank spot 285
T3 construct: Bought soluble receptor; also called insulin-like growth factor-1 soluble receptor

[2] = target: T4, Recombinant Human DLL4 (R&D Systems Cat#1506-D4/CF) (human, UniProt Q9NR61 27-524); assay: as above
T4 construct: Bought recombinant protein; also called rHuman DLL4; delta-like protein 4

[3] = target: T5, rHuman CD44/Fc Chimera, CF (R&D Systems Cat#3660-CD) (human, UniProt P16070 21-220); assay: as above
T5 construct: Bought reagent

[4] = target: T6, rHuman EGF R/Fc Chimera, CF (R&D Systems Cat#344-ER) (human, UniProt P00533 25-645); assay: as above
T6 construct: Bought reagent; also called epidermal growth factor receptor

[5] = target: T7, rHuman ErbB2/Fc Chimera, CF (R&D Systems Cat#1129-ER) (human, UniProt P04626 23-652); assay: as above
T7 construct: Bought reagent; also called human epidermal growth factor 2 receptor

[6] = target: T8, rHuman Notch-1/Fc Chimera, CF (R&D Systems Cat#3647-TK) (human, UniProt P46531 19-526); assay: as above
T8 construct: Bought reagent

[7] = target: T9, rHuman HGF R/c-MET/Fc Chimera, CF (R&D Systems Cat#358-MT/CF) (human, UniProt P08581 25-932); assay: as above
T9 construct: Bought reagent; also called HGF R/Fc; hepatocyte growth factor receptor

[8] = target: T1, rHuman Erythropoietin R/Fc Chimera, CF …; assay: as above
[9] = target: T10, rHuman CD44/Fc Chimera, CF (R&D Systems Cat#3660-CD) (human, UniProt P16070 21-220); assay: Multispot ECL (MSD) titration; antigen spotted on plate; Fab 14.5 nM; blank spot 117
T10 construct: Bought Fc chimera; Fc part of the bought chimera not given

[10] = target: T2, rHuman Erythropoietin R/Fc Chimera, CF …; assay: as above
[11] = target: T11, rHuman P-Cadherin/Fc Chimera, CF (R&D Systems Cat#861-PC) (human, UniProt P22223 108-654); assay: as above
T11 construct: Bought Fc chimera; Fc part of the bought chimera not given

[12] = target: T12, rHuman IGF-1 sR (IGF-1 sR), CF (R&D Systems Cat#391-GR) (human, UniProt P08069 31-932); assay: as above
T12 construct: Bought soluble receptor; also called insulin-like growth factor-1 soluble receptor

[13] = target: T13, Recombinant Human DLL4 (R&D Systems Cat#1506-D4/CF) (human, UniProt Q9NR61 27-524); assay: as above
T13 construct: Bought recombinant protein; also called delta-like protein 4; rHuman DLL4

[14] = target: T14, rHuman Notch-1/Fc Chimera, CF (R&D Systems Cat#3647-TK) (human, UniProt P46531 19-526); assay: as above
T14 construct: Bought Fc chimera; Fc part of the bought chimera not given

T9 sequence (P08581 25-932, change not shown): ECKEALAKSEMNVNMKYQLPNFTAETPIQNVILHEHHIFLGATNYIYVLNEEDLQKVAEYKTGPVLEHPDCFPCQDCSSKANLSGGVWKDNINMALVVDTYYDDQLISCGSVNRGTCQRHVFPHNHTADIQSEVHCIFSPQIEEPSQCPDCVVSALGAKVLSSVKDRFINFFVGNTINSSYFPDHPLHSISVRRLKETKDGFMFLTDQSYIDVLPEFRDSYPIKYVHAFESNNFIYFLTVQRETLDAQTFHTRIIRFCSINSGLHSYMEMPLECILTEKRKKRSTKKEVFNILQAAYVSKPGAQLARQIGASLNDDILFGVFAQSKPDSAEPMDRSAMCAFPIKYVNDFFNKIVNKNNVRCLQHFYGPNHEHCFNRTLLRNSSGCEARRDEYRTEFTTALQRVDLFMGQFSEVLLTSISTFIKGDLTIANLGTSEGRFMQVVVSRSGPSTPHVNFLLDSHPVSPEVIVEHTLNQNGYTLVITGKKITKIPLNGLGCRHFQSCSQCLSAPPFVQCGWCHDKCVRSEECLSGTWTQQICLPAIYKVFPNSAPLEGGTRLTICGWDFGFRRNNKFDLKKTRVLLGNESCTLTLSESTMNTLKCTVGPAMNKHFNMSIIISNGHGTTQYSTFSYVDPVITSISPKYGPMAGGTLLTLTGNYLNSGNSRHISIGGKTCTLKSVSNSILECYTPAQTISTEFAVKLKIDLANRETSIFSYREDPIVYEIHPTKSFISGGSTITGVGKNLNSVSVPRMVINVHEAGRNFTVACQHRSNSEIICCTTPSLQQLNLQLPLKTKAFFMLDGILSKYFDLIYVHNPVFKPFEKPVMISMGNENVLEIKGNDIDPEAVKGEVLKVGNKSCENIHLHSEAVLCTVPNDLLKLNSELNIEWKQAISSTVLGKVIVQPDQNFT

| Binder | ECL signal [1] | ECL signal [2] | ECL signal [3] | ECL signal [4] | ECL signal [5] | ECL signal [6] | ECL signal [7] | ECL signal [8] | ECL signal [9] | ECL signal [10] | ECL signal [11] | ECL signal [12] | ECL signal [13] | ECL signal [14] |
| --- | --- | --- | --- | --- | --- | --- | --- | --- | --- | --- | --- | --- | --- | --- |
| B1 | 335 ECL signal | 17200 ECL signal | 372 ECL signal | 403 ECL signal | 321 ECL signal | 306 ECL signal | 353 ECL signal | 378 ECL signal |  |  |  |  |  |  |
| B2 |  |  |  |  |  |  |  |  | 212 | 660 | 277 | 234 | 1150 | 317 |
